The values that follow come from paper PMC7556464, “4CMenB vaccine induces elite cross-protective human antibodies that compete with human factor H for binding to meningococcal fHbp” (PLoS Pathogens, 2020).

Assay [1] deals with T1, factor H binding protein (fHbp) variant 3.28, recombinant (Neisseria meningitidis M1239, fHbp v3.28, UniProt Q19KF7, strain).
T1 construct: also called fHbp v3.28; fHbp v3; source: E. coli BL21(DE3), purified (Ni-NTA, SEC when necessary)
The assay can be described thus: SPR. The conditions noted are these: both partners purified.

The target of assay [2] is T2, factor H binding protein (fHbp) variant 1.1, recombinant (Neisseria meningitidis MC58, fHbp v1.1).
T2 construct: also called fHbp v1.1; fHbp v1; source: E. coli BL21(DE3), purified (Ni-NTA, SEC when necessary); not shown: His6, C-terminal, kept
T2 chain: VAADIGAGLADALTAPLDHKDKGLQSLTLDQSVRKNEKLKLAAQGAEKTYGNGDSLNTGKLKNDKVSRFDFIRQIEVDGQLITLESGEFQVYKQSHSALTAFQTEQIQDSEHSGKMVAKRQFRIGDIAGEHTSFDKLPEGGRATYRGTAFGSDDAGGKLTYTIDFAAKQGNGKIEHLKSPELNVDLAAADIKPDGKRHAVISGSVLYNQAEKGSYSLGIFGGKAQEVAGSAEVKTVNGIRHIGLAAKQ
The assay can be described thus: SPR. The conditions noted are these: both partners purified.

Assay [3] concerns the target T3, factor H binding protein (fHbp) variant 2.16, recombinant (Neisseria meningitidis 961-5945, UniProt Q6VS19, strain).
T3 construct: also called fHbp v2.16; fHbp v2; source: E. coli BL21(DE3), purified (Ni-NTA, SEC when necessary)
The assay can be described thus: SPR. The conditions noted are these: both partners purified.

The target of assay [4] is T4, native fHbp v2.16 on live N. meningitidis strain UK104 (M08-240104) (Neisseria meningitidis, UniProt Q6VS19).
T4 construct: source: endogenous, on live N. meningitidis M08-240104 (UK104)
The assay can be described thus: flow cytometry on cells. Conditions: one partner purified.

The target of assay [5] is T2, factor H binding protein (fHbp) variant …. The assay can be described thus: BLI; Octet 384 Red, 30 C; mAb 4B3 captured on Anti-Human Fc biosensors, wild type and mutant fHbp in solution, 150 nM to 1 nM, in 1 x PBS, 1% (w/v) BSA; triplicate. Conditions: both partners purified. For orientation: BLI is a label-free optical method that tracks binding on a fibre tip over time.

Assay [6] has as its target T4, native fHbp v2.16 on live N. …. In words: flow cytometry on cells; live meningococci (MC58, UK104, UK320) in mid-log phase incubated with mAbs at 10 ug/ml; detected with FITC anti-human IgG. Conditions: one partner purified. On the technique in general: A flow cytometer gives signals particle by particle.

Substitutions are numbered along the chain they refer to.

B1: human anti-fHbp mAb 3B7 (antibody, V domains shown)
VH: EVQLVQSGAEVKKPGSSVKVSCKASGDTFSNYPISWVRQAPGQGLEWMGGIIPIFGTANYAQKFQGRVTITADESTSTPYMELSSLRSEDTAVYYCARGDTAMAPFDYWGQGTLVTVSS
VL: SYVLTQPPSVSVAPGKTARITCGGNSIGSKSVHWYQQKPGQAPVLVIYYDSDRPSGVPERISGSNSGNTATLTISRVEAGDEADYYCQVWDSSSDSWVFGGGTKLTVL
notes: source: Expi293, transient transfection, purified (protein G Sepharose)
With B1, the Kd (usually the constant that tells how readily two partners part at equilibrium) worked out at 2.2 nM in assay [1], 2.6 nM in assay [2] and 0.551 nM in assay [3].

B2: human anti-fHbp mAb 4F9 (antibody, V domains shown)
VH: QVQLVQSGGGLVKPGGSLRLSCAASGFPFSSYYMSWIRQAPGKGLEWVSDINNSGNVKEYADFVKGRLTISRDNVKNSMYLHMNSLRVEDTAVYYCARNRGRFDVWGQGTLVTVSA
VL: EIVMTQSPGTLSLSPGETATLSCRASQMISSPFLAWYQQRRGQAPRLLIYGASTRATDTPDRFRGSGSGTDFILTISRLEPEDFAVYYCQHYDDSPFTFGQGTKLEIK
notes: IgG1; source: Expi293, transient transfection, purified (protein G Sepharose)
In the case of B2, the Kd came out at 0.24 nM in assay [1], 0.077 nM in assay [2] and 0.0285 nM in assay [3]. Besides, in assay [4], the binding result is given as “binds”.

B3: human anti-fHbp mAb 3G7 (antibody, V domains shown)
VH: B2 VH with Q1E, V5L
VL: B2 VL with M4L, H91Y
notes: as for B2
With B3, the Kd turned out to be 0.68 nM in assay [1], 0.344 nM in assay [2] and 0.0526 nM in assay [3]. Moreover, the binding result in assay [4] was “binds”.

B4: human anti-fHbp mAb 4B3 (IgG1) (antibody, V domains shown)
VH: B2 VH
VL: B2 VL with H91Y
notes: as for B2
For the molecule B4, the dissociation constant (Kd) in assay [1] is 0.633 nM; in assay [2] it was 0.328 nM; in assay [3] it was 0.029 nM; in assay [5], 1.7 nM. Further, the binding result in assay [4] is given as “binds”.

B5: human anti-fHbp mAb 5F12 (antibody, V domains shown)
VH: EVQLVESGGDLVKPGGSLRLSCAASGFTFSNYTMNWVRQAPGKGLEWVSSITSSSSFKYYADSVKGRFTISRDNAKNSVFLQMNSLRAEDTAIYYCARRIDSSDQDWFYYYGMDVWGLGTTVTVSS
VL: QSVLTQPPSVSAAPGQRVTISCSGSSSNIGDNYISWYQQLPGTAPKLLIYDNDQRPSGTPDRFSASKSGTSATLGVTGLQTGDEADYYCGTWDSSLNAPVFGSGTKVTVL
notes: as for B2
For the molecule B5, the Kd in assay [1] amounted to 1.75 nM; in assay [2], 1.01 nM; in assay [3], 2.75 nM.

B6: human anti-fHbp mAb 5C6 (antibody, V domains shown)
VH: EVQLLESGGGLVQPGGSLRLSCAASGFTFSSYAMSWVRQTPGKGLEWVSAISGSGGSTYYADSVQGRFTISRDNSKNTLYLQINSLRAEDTAVYYCAKDPGFVLSSGWYYFDYWGQGTLVTVSS
VL: not shown
notes: as for B2
As to B6, the Kd stood at 2.03 nM in assay [1], 1.08 nM in assay [2] and 1.7 nM in assay [3]. The binding result in assay [6] is listed as “binds”.

B7: human anti-fHbp mAb 2C8 (antibody, V domains shown)
VH: QVQLVQSGAEVKKPGSSVKVSCKASGGTVINYPISWVRQVPGQGLEWMGRLVPLFGTPNYGQKFQGRITITADKSTSAAYMELIGLKSEDTAVYYCARGDTAMAPFDYWGHGTLVTVSS
VL: QLVLTQPPSVSVAPGKTATITCGGNNVGGKTVHWYQQKPGQAPVLVMSYDSDRPSGIPERFSGSNSGNTATLTISRVEAEDEADYYCQVWHGNDDHWVFGGGTKLTVL
notes: as for B2
Consider B7, for which the Kd worked out at 0.46 nM in assay [1], 0.34 nM in assay [2] and 0.0525 nM in assay [3].

B8: human anti-fHbp mAb 1D1 (antibody, V domains shown)
VH: QVQLVGSGGGLVKPGGSLRLSCAASGFTFSSYTMNWVRQAPGKGLEWVSSISSSSGYIYYADSLKGRFTISRDDAKNSLFLQMNSLRAEDTAVYFCARDKVLPAPPGFYGLDVWGPGTTVTVSS
VL: QSVVTQPPSVSAAPGQKVTISCSGSSSNIEDNFVSWYQQLPGTAPKLLIYDNNQRPSGIPDRFSGSKSGTSATLGITGLQTGDEADYYCATWDNSLSARVFGGGTKLTVL
notes: as for B2
As to B8, the Kd in assay [1] was determined as 1.72 nM; in assay [2], 0.893 nM; in assay [3], 2.61 nM.

B9: human anti-fHbp mAb 3F1 (antibody, V domains shown)
VH: B8 VH with Q1E, Q3H, G6E, D74N
VL: B8 VL
notes: as for B2
Take B9: the results for the Kd in assay [1], in assay [2] and in assay [3] were 1.8 nM, 1.04 nM and 11.3 nM, respectively.

B10: human anti-fHbp mAb 1E10 (antibody, V domains shown)
VH: QVQLVESGGDLVKPGGSLRLSCVASGFTFSSYTMNWVRQAPGKGLEWVSSITSSSSFTYYADSVKGRFIISRDNAKNSLSLQMNNLRVEDTATYYCARRKDSSDYDWYYYYGMDVWGLGTTVTVSS
VL: QSVVTQPPSVSAAPGQKVTISCSGSSSNIGDNYMSWYQQIPGTAPKLLIFDNDQRPSGIPDRFSASKSGTSATLDITGFQTGDEADYYCGTWDSGLSAPVFGGGTKLTVL
notes: as for B2
Take B10: the values for the Kd in assay [1], in assay [2] and in assay [3] were 1.27 nM, 1.54 nM and 1.4 nM, respectively.

B11: human anti-fHbp mAb 2G1 (antibody, V domains shown)
VH: B10 VH
VL: B10 VL with V4L
notes: as for B2
As for B11, the Kd was found to be 1.75 nM in assay [1], 1.08 nM in assay [2] and 1.7 nM in assay [3].
